Biological target: OCT4 wild-type in cells (human) (UniProt Q01860)
Assay: cell_activity
Conditions: for binding signal: transcription activity relative to OBS1+OBS2

UniProt Q01860, sequence (Q01860 whole entry): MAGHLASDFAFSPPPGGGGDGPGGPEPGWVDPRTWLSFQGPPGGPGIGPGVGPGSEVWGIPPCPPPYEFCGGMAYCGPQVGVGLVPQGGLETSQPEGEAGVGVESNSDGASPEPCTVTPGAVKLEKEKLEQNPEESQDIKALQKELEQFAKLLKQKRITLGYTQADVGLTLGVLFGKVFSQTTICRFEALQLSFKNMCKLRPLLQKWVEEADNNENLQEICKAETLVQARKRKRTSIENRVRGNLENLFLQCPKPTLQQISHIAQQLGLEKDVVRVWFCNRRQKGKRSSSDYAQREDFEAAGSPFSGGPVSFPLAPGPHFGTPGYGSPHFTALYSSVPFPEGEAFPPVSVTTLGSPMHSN

Substance	activity (luciferase reporter in HEK293FT vs vector control)	binding signal
MYC -1/-1899 promoter reporter	24.4 fold	–
MYC OBS2 single-site reporter	–	40%
MYC OBS1 single-site reporter	–	60%

From US20220233554
